Positions count from the first letter of the chain named. Names may count otherwise.
T1: Cyno Cadherin-19 (cynomologous monkey (Macaca …, UniProt Q9H159 44-772 (human entry)))
T1 construct: also called cynomologous monkey CDH-19
T1 chain: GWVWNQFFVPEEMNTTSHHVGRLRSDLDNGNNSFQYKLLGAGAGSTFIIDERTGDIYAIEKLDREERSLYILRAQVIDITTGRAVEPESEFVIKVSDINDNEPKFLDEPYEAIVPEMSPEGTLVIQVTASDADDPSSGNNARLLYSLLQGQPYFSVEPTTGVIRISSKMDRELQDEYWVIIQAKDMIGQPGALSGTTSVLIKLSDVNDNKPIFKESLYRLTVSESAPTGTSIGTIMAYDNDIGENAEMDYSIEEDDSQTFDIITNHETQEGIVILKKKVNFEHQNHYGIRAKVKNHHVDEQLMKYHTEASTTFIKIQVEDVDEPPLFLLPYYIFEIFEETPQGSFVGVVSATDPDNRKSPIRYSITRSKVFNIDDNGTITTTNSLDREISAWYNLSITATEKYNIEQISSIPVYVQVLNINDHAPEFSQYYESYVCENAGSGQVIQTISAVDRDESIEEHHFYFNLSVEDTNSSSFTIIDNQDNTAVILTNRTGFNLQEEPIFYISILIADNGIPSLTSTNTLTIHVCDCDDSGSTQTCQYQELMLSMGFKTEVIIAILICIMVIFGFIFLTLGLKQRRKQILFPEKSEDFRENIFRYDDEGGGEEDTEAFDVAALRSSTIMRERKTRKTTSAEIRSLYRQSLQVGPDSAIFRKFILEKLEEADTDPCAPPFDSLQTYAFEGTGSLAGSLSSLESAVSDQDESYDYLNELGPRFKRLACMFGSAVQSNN

B1: hu anti-<huCDH19> 25F8.1 (Ab ID 13880) (antibody, human IgG1, lambda, V domains shown)
VH: QVQLVQSGAEVKKPGASVKVSCKASGYTFTSYYIHWVRQAPGQGLEWMGIINPSGGSTRYAQKFQGRVTMTRDTSTSTVFMELSSLRSEDTAVYYCARGGIQLWLHFDYWGQGTLVTVSS
VL: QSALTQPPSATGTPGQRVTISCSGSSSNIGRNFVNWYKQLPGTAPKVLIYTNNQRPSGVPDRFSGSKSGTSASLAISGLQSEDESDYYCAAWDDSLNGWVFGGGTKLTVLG
notes: huIgG1z / huLLC-C2; Bin 2
B2: hu anti-<huCDH19> 25G10.1 (Ab ID 13883) (antibody, human IgG1, kappa, V domains shown)
VH: QVQLQESGPGLVKPSETLSLTCTVSGGSISGYYWSWIRQPPGKGLEWIGYIYYIGSTNYNPSLKSRVTMSVDTSKNQFSLKLSSVTAADTAVYYCARDGSSGWYRWFDPWGQGTLVTVSS
VL: EIVLTQSPGTLSLSPGERATLSCRASQSVSSSYLAWYQQKPGQAPRLLIFGASSRATGIPDRFSGSGSGTDFTLTISRLEPEDFAVYHCQQYGNSPLTFGGGTKVEIKR
notes: huIgG1z / huKLC; Bin 3
B3: hu anti-<huCDH19> 16C1.1 (Ab ID 13875) (antibody, human IgG1, kappa, V domains shown)
VH: B2 VH with V71I, K81T, V85L, Y94F
VL: B2 VL with R78G
notes: huIgG1z / huKLC; Bin 3
B4: hu anti-<huCDH19> 4F7 (Ab ID 13591) (antibody, human IgG1, lambda, V domains shown)
VH: QVQLQESGPGLVKPSETLSLTCTVSGGSISSYSWSWIRQPPGKGLEWIGYIYYSGSTNYNPSLKSRVTISLDTSKNQFSLKLSSVTAADTAVYYCARNWAFHFDYWGQGTLVTVSS
VL: QSVLTQPPSVSGAPGQRVTISCTGSSSNIGTGYDVHWYQQLPGTAPKLLIHGNSNRPSGVPDRFSGSKSGTSASLAITGLQAEDEADYYCQSYDSSLSGWVFGGGTRLTVLG
notes: huIgG1z / huLLC-C1; Bin 1
B5: hu anti-<huCDH19> 22G10.1 (Ab ID 13877) (antibody, human IgG1, kappa, V domains shown)
VH: EVQLLESGGGLVQPGGSLRLSCAASGFTFSSYAMNWVRQAPGKGLEWVSTISGGGANTYYADSVKGRFTISSDNSKSTLYLQMNSLRAADTAVYHCAKGGMGGYYYGMDVWGQGTTVTVSS
VL: EIVMTQSPVTLSLSLGERATLSCRASQSISSNLAWFQQKPGQAPRLLIYGAFTRATGIPARVSGSGSGTEFTLTISSLQSEDFAVYYCQQYNYWPLTFGGGTKVEIKR
notes: huIgG1z / huKLC; Bin 3
B6: hu anti-<huCDH19> 20D3.1 (Ab ID 13878) (antibody, human IgG1, lambda, V domains shown)
VH: B1 VH with A24V, Y33F, S54I, G55S, G56V, R59S
VL: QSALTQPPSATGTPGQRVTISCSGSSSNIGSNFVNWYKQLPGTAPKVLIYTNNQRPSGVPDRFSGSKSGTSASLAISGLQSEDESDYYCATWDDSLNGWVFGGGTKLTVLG
notes: huIgG1z / huLLC-C2; Bin 2; also called 16H2; 23E7
B7: hu anti-<huCDH19> 22D1.1 (Ab ID 13879) (antibody, human IgG1, lambda, V domains shown)
VH: B1 VH with K19R, A24V, Y33F, S54I, G55S, G56V, R59S, F107L
VL: QSALTQPPSATGTPGQRVTISCSGSSSNIGSNFVNWYKQLPGTAPKVLIYTNNQRPSGVPDRFSGSKSGTSASLAISGLQSEDESDYYCATWDDSMNGWVFGGGTKLTVLG
notes: huIgG1z / huLLC-C2; Bin 2
B8: hu anti-<huCDH19> 19B5.1 (Ab ID 13885) (antibody, human IgG1, lambda, V domains shown)
VH: B1 VH with A24V, Y33F, S54I, G55S, G56V, R59S, F107L
VL: B7 VL with A10T, S26R
notes: huIgG1z / huLLC-C2; Bin 2
B9: anti-CDH19 antibody 23A10 (Ab ID 13884) (antibody, human IgG1, lambda, V domains shown)
VH: QVQLVESGGGVVQPGRSLRLSCAASGFTFSRYGIHWVRQAPGKGLEWVAVIWYDGSNKYYADSVKGRFTISRDNSKNTLYLLMNSLRAEDSAVYYCARRAGIPGTTGYYYGMDVWGQGTTVTVSS
VL: SYELTQPPSVSVSPGQTASITCSGDRLGEKYVCWYQQKPGQSPILVIYQDNKWPSGIPERFSGSNSGNTATLTISGTQAMDEADYYCQAWDSSTVVFGGGTKLTVLG
notes: Bin 4
B10: hu anti-<huCDH19> 26D1.1 (1-469)(R27G,G82R) VH::huIgG1z + 26D1.1 (1-235)(H1Q,S7P) VL::huLLC-C2 (Ab ID 14088) (antibody, V domains shown)
VH: B1 VH with I34M, H35S, N52H, S57D, R59T, F80Y, Q102K
VL: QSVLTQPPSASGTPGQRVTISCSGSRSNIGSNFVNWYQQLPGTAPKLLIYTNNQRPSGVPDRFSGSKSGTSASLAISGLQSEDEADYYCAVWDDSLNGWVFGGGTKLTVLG
notes: Engineered variant of 26D1; the entries already carry the changes; Bin 2
B11: hu anti-<huCDH19> 25F8.1 VH::huIgG1z + 25F8.1 (1-235)(K45Q,S102A) VL::huLLC-C2 (Ab ID 14094) (antibody, V domains shown)
VH: B1 VH
VL: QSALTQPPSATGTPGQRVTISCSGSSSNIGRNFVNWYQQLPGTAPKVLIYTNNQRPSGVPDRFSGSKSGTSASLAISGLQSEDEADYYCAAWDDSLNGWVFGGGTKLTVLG
notes: Engineered variant of 25F8; the entries already carry the changes; Bin 2
B12: hu anti-<huCDH19> 4A9 VH::huIgG1z + 4A9 (1-239)(F47L) VL::huLLC-C1 (Ab ID 14056) (antibody, V domains shown)
VH: B4 VH with S31G, S33Y, I48F, G49A, I51F, Y52S, I69L, L71V, Y105F
VL: B4 VL with D34A, H51Y, S54N, S96R, R107K
notes: Engineered variant of 4A9; the entries already carry the changes; Bin 1
B13: hu anti-<huCDH19> 4A9 (1-468)(F55I,A56G) VH::huIgG1z + 4A9 (1-239)(F47L) VL::huLLC-C1 (Ab ID 14057) (antibody, V domains shown)
VH: B4 VH with S31G, S33Y, I51F, Y52S, I69L, L71V, Y105F
VL: B4 VL with D34A, H51Y, S54N, S96R, R107K
notes: as for B12
B14: hu anti-<huCDH19> 4B10 (1-471)(R17G,D61E,D72E) VH::huIgG1z + 4B10 (1-236)(H45Q,A90T) VL::huKLC (Ab ID 14055) (antibody, V domains shown)
VH: QVQLVESGGGVVQPGGSLRLSCAASGFTFSSYDMHWVRQAPGKGLEWVAVISYEGTNEYYAESVKGRFTISRDTSKNTLYLQMNSLRAEDTAVYYCARERYFDWSFDYWGQGTLVSVSS
VL: EIVLTQSPGTLSLSPGERATLSCRASQSVSNTYLAWYQQRPGQAPRLLIYGASSRATGIPDRFSGSGSGTDFTLTISSLEPEDFAVYYCQQYSNSWTFGQGTKVEIKR
notes: Engineered variant of 4B10; the entries already carry the changes; Bin 4

Biological target: T2, Human Cadherin-19 (human, UniProt Q9H159 44-772)
T2 construct: also called CDH19; huCDH19
Assay: FACS, endogenous CDH-19 on CHL-1 and Colo699 tumor cells
Description: FACS binding assays were performed to evaluate the binding of the anti-Cadherin-19 receptor specific antibodies to endogenous Cadherin-19 receptor expressed on the CHL-1 tumor cell lines.
FACs assays were performed by incubating hybridoma supernatants with 10,000 to 25,000 cells in PBS/2% Fetal bovine serum/2 mM Calcium Chloride at 4° C. for one hour followed by two washes with PBS/2% Fetal bovine serum/2 mM Calcium Chloride. Cells were then treated with florochrome-labeled secondary antibodies at 4° C. followed by one wash. The cells were resuspended in 50 μl of PBS/2% FBS and antibody binding was analyzed using a FACSCalibur™ instrument.

| binding result | Binder |
| --- | --- |
| binds | B1 |
| binds | B2 |
| binds | B3 |
| binds | B4 |
| binds | B5 |
| binds | B6 |
| binds | B7 |
| binds | B8 |
| binds | B9 |

Biological target: T1, Cyno Cadherin-19
Assay: FACS, recombinant cynomologous CDH-19

| binding result | Binder |
| --- | --- |
| binds | B1 |
| binds | B4 |
| binds | B5 |
| binds | B6 |
| binds | B7 |
| binds | B8 |
| binds | B9 |

Biological target: T3, huCDH19(44-249)::muCDH19(248-770) with Flag tag (construct C, Hu EC1-2) (human/mouse chimera)
T3 construct: leader left out; the entry starts at residue 44; also called C137896
Assay: flow cytometry, transfected 293T cells
Excerpt: (§1) The experiment included assaying the anti-CDH19 antibodies against mouse Cadherin19 to determine suitability for binning on these human/mouse chimeras.

| binding result | Binder |
| --- | --- |
| binds | B10 |
| binds | B11 |
| binds | B1 |
| binds | B12 |
| binds | B13 |

Biological target: huCDH19(44-772) with Flag tag (construct A, Hu EC1-5) (human, UniProt Q9H159 44-772)
Assay: flow cytometry, transfected 293T cells
Excerpt: as §1

| binding result | Binder |
| --- | --- |
| binds | B10 |
| binds | B11 |
| binds | B1 |
| binds | B12 |
| binds | B13 |
| binds | B14 |

Biological target: T4, huCDH19(44-141)::muCDH19(140-770) with Flag tag (construct B, Hu EC1) (human/mouse chimera)
T4 construct: leader left out; the entry starts at residue 44; also called C137897
Assay: flow cytometry, transfected 293T cells
Excerpt: as §1

| binding result | Binder |
| --- | --- |
| binds | B10 |
| binds | B11 |
| binds | B1 |
| binds | B12 |
| binds | B13 |

Reference: patent US20220127354A1 (Amgen, published 2022)
